Experimental data from the RNAGym collection of RNA variant scans (doi:10.1093/molbev/msab373).

B1: Azoarcus group I ribozyme (parent)
chain: GUGCCUUGCGCCGGGAAACCACGCAAGGGAUGGUGUCAAAUUCGGCGAAACCUAAGCGCCCGCCCGGGCGUAUGGCAACGCCGAGCCAAGCUUCGGCGCCUGCGCCGAUGAAGGUGUAGAGACUAGACGGCACCCACCUAAGGCAAACGCUAUGGUGAAGGCAUAGUCCAGGGAGUGGCGAAAGUCACACAAACCGG

Variants of: B1
Test: reverse-splicing fitness (ratio to wild type); higher = more active; in vitro selection; Mg2+ level not given
How it was run: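 An in vitro group I ribozyme library with randomized positions was T7-transcribed and gel-purified. In triplicate, 10 pmol RNA in EPPS pH 7.5 was reacted with 50 pmoles of a 30-nt RNA substrate for 1 h at 37 °C across several added MgCl2 levels (1–48 mM), then stopped with EDTA. Products were reverse transcribed from a substrate-complementary primer, PCR-amplified and sequenced (HiSeq 4000). Fitness is a variant's read proportion after selection over that before, normalised to wild type.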

Row | Variant | reverse-splicing fitness
1 | A111U A120U A145C C150A C169U | 0.00469
2 | A111U A120U A145C C150A C169G | 0.00394
3 | A111U A120U A145C C150A C169A | 0.00256
4 | A111U A120G A145C C150U C169U U176G | 0.00469
5 | A111U A120G A145C C150U C169U U176A | 0.0278
6 | A111U A120G A145C C150U C169U U176C | 0.0209
7 | A111U A120G C150A C169A U176A | 0.0237
8 | A111U A120G C150A C169A U176C | 0.0201
9 | A111U A120G C150A C169A U176G | 0.00606
10 | A111U A120G A145U C150G U176G | 0.00309
11 | A111U A120G A145U C150G U176A | 0.00927
12 | A111U A120G A145U C150G U176C | 0.0142
13 | A111U A120G A145G C150A C169G U176G | 0.00526
14 | A111U A120G A145G C150A C169G U176C | 0.0294
15 | A111U A120G A145G C150A C169G U176A | 0.0198
16 | A111U A120C C150U | 0.348
17 | A111U A120C C150U C169U | 0.0972
18 | A111U A120C C150U C169A | 0.0121
19 | A111U A120C C150U C169G | 0.00855
20 | A111U A120G A145C C150U U176G | 0.00458
21 | A111U A120G A145C C150U U176A | 0.0191

Row | Variant | reverse-splicing fitness
22 | A111U A120G A145C C150U U176C | 0.0201
23 | A111U A120G A145G C169G | 0.222
24 | A111U A120G A145G C169U | 0.158
25 | A111U A120G A145G C169A | 0.119
26 | A111U A120G A145G C150G C169U U176G | 0.00728
27 | A111U A120G A145G C150G C169U U176A | 0.0113
28 | A111U A120G A145G C150G C169U U176C | 0.015
29 | A111U A120G C150A C169U U176A | 0.0295
30 | A111U A120G C150A C169U U176C | 0.0205
31 | A111U A120G C150A C169U U176G | 0.0082
32 | A111U A120G C150U C169U U176A | 0.0401
33 | A111U A120G C150U C169U U176C | 0.0386
34 | A111U A120G C150U C169U U176G | 0.00701
35 | A111U A120G A145C C150G C169A U176G | 0.00416
36 | A111U A120G A145C C150G C169A U176A | 0.00822
37 | A111U A120G A145C C150G C169A U176C | 0.00757
38 | A111U A120G A145G C150U C169U | 0.133
39 | A111U A120G A145G C150U C169G | 0.166
40 | A111U A120G A145G C150U C169A | 0.0845
41 | A111U A120G A145C C169A | 0.11
42 | A111U A120G A145C C169U | 0.151

Row | Variant | reverse-splicing fitness
43 | A111U A120G A145C C169G | 0.193
44 | A111U A120G C150U C169A U176G | 0.00517
45 | A111U A120G C150U C169A U176C | 0.0245
46 | A111U A120G C150U C169A U176A | 0.0189
47 | A111U A120G A145U C169G U176A | 0.0309
48 | A111U A120G A145U C169G U176C | 0.045
49 | A111U A120G A145U C169G U176G | 0.00486
50 | A111U A120G A145U C150A C169U | 0.0181
51 | A111U A120G A145U C150A C169A | 0.0164
52 | A111U A120G A145U C150A C169G | 0.0206
53 | A111U A120G A145U U176A | 0.0396
54 | A111U A120G A145U U176C | 0.0483
55 | A111U A120G A145U U176G | 0.00581
56 | A111U A120G A145G C150U U176G | 0.00725
57 | A111U A120G A145G C150U U176C | 0.0446
58 | A111U A120G A145G C150U U176A | 0.0295
59 | A111U A120G C169U U176G | 0.00807
60 | A111U A120G C169U U176A | 0.0505
61 | A111U A120G C169U U176C | 0.055
62 | A111U A120G A145G C150A C169U U176C | 0.024
63 | A111U A120G A145G C150A C169U U176A | 0.0247

Row | Variant | reverse-splicing fitness
64 | A111U A120G A145G C150A C169U U176G | 0.00606
65 | A111U A120C C150U C169A U176A | 0.018
66 | A111U A120C C150U C169A U176G | 0.00509
67 | A111U A120C C150U C169A U176C | 0.0126
68 | A111U A120G A145C C150U | 0.0388
69 | A111U A120G A145C C150A | 0.0115
70 | A111U A120G A145C C150G | 0.0213
71 | A111U A120C C169A | 0.0124
72 | A111U A120C C169U | 0.174
73 | A111U A120C C169G | 0.0098
74 | A111U A120G C150G C169U U176C | 0.0149
75 | A111U A120G C150G C169U U176G | 0.00577
76 | A111U A120G C150G C169U U176A | 0.0137
77 | A111U A120G C150U C169G U176A | 0.0314
78 | A111U A120G C150U C169G U176C | 0.0391
79 | A111U A120G C150U C169G U176G | 0.00503
80 | A111U A120G A145G C150G C169A U176G | 0.00787
81 | A111U A120G A145G C150G C169A U176C | 0.0131
82 | A111U A120G A145G C150G C169A U176A | 0.0126
83 | A111U A120U A145C C150G C169U U176C | 0.0029
